Measurements from US20230110085A1.

Key:
[1] = target: human IgG (IVIg, Gamunex) (human); experiment: cell-based or functional assay
[2] = target: purified human IgM (#16-16-090713-M, Athens Research & Technology) (human); experiment: cell-based or functional assay
[3] = target: purified human IgM (#16-16-090713-M, Athens Research & Technology) (human); experiment: Western blot of DTT-reduced purified human IgM titrated 1250 to 4.8 ng/well

| Substance | cleavage on SDS-PAGE (full cleavage) [1] [µg/mL] | cleavage on SDS-PAGE (to scIgG) [1] [µg/mL] | cleavage on SDS-PAGE [2] [µg/mL] | digestion on SDS-PAGE gel [2] [µg/mL] | detection limit (lowest IgM amount with visible band) [3] [ng/well] |
| --- | --- | --- | --- | --- | --- |
| imlifidase (IdeS), immunoglobulin G-degrading cysteine protease of S. pyogenes (enzyme) | 2 | 0.2 | > 200 | > 200 |  |
| PE-conjugated donkey anti-human IgM (#IGM-PEC1, One Lambda) (antibody) |  |  |  |  | 19 |
